{
  "source": "paper PMC9477392",
  "about": "(2022)",
  "binders": {"B1": {"name": "Memo1 (protein)", "chain": "MSNRVVCREASHAGSWYTASGPQLNAQLEGWLSQVQSTKRPARAIIAPHAGYTYCGSCAAHAYKQVDPSITRRIFILGPSHHVPLSRCALSSVDIYRTPLYDLRIDQKIYGELWKTGMFERMSLQTDEDEHSIEMHLPYTAKAMESHKDEFTIIPVLVGALSESKEQEFGKLFSKYLADPSNLFVVSSDFCHWGQRFRYSYYDESQGEIYRSIEHLDKMGMSIIEQLDPVSFSNYLKKYHNTICGRHPIGVLLNAITELQKNGMNMSFSFLNYAQSSQCRNWQDSSVSYAAGALTVH", "modifications": "Cu(I)-loaded Atox1"}},
  "molecular_target": "T1, Atox1 (Homo sapiens, UniProt O00244)",
  "T1 chain": "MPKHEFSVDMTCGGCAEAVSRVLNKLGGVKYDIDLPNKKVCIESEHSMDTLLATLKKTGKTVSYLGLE",
  "assay": "SPR",
  "data": [
    {"binder": "B1", "values": [
      {"measurement": "Kd", "result": 210, "unit": "nM"}
    ]}
  ]
}
